# Experimental data taken from paper PMC3137068.
# Read-outs that look alike come from different tables or passages of the source.
# Columns and labels:
# Asp455 = Asp455 (UniProt position 474, KPVMLDLYADW); settings: isolated domain, cited from earlier work
# Cys461 = Cys461 (UniProt position 480, LYADWCVACKE); test: NMR; settings: reduced cDsbD (Cys461 and Cys464 as free thiols), isolated from nDsbD; cited from earlier work
# [1] = target: oxidized nDsbD (N-terminal periplasmic globular domain of DsbD, wild type) (E. coli) (UniProt P36655); test: SPR
# [2] = target: oxidized D455N/E468Q-cDsbD (E. coli); test: NMR titration
# [3] = target: oxidized V462A-cDsbD (E. coli); test: NMR titration
# [4] = target: oxidized cDsbD (C-terminal periplasmic globular domain of DsbD, wild type) (E. coli); test: NMR titration
# Sequence of oxidized cDsbD (C-terminal periplasmic globular domain of DsbD, wild type) (E. coli) (P36655 20-565): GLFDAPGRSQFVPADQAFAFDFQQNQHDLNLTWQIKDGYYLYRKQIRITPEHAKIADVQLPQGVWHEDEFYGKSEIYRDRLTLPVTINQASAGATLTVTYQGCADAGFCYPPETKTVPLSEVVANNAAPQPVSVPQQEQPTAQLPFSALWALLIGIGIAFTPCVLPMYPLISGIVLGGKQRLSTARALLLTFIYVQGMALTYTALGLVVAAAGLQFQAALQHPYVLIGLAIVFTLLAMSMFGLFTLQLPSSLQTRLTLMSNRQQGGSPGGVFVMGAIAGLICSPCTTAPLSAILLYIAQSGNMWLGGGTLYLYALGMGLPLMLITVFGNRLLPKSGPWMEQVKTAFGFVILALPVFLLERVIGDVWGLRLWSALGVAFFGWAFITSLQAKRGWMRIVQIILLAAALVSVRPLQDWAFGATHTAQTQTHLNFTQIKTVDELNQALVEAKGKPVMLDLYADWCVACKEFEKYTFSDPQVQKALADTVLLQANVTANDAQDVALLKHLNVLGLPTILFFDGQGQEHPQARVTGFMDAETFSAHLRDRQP
molecule,measurement,setting,value
"Thiol:disulfide interchange protein DsbD, C-terminal periplasmic thioredoxin-like domain (cDsbD) (Escherichia coli)",pKa,Asp455; oxidized cDsbD (Cys461-Cys464 disulfide),6.6
same,pKa,Asp455; reduced cDsbD (Cys461 and Cys464 as free thiols),5.9
same,pKa,Cys461,10.5
C461A-cDsbD (domain or fragment),Kd,[1],86 µM
"oxidized nDsbD (N-terminal periplasmic globular domain of DsbD, wild type) (domain or fragment, Cys103-Cys109 disulfide bond (oxidized state)) LFDAPGRSQFVPADQAFAFDFQQNQHDLNLTWQIKDGYYLYRKQIRITPEHAKIADVQLPQGVWHEDEFYGKSEIYRDRLTLPVTINQASAGATLTVTYQGCADAGFCYPPETKTVPLSEVVANNAAPQPV",Kd,[2],2000 µM
same,fold weaker than with wild-type cDsbDox,[3],5 to 10 fold
C109A-nDsbD (domain or fragment) LFDAPGRSQFVPADQAFAFDFQQNQHDLNLTWQIKDGYYLYRKQIRITPEHAKIADVQLPQGVWHEDEFYGKSEIYRDRLTLPVTINQASAGATLTVTYQGCADAGFAYPPETKTVPLSEVVANNAAPQPV,Kd,[4],2400 to 3500 µM
